This test concerns the target cyclophilin A, N-terminally His- and FLAG-tagged fusion protein (UniProt P62937). Put plainly: SPR (Biacore S51); 1 uM cyclosporin A injected for 1.5 minutes over Cyph immobilized (approx. 3,400 RU) on an NTA sensor chip. For orientation: In SPR one partner is held on a chip, and binding of the other changes the refractive index at the surface.
Sequence of UniProt P62937 (P62937 other isoform, or with tags, fused parts or gaps limits assumed): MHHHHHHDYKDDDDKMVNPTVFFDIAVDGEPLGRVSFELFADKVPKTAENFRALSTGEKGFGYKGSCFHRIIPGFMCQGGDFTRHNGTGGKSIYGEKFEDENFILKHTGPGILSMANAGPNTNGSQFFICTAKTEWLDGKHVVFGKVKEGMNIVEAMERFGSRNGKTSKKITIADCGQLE

Regarding Cyclosporin A (peptide), the response (RU) was 43 RU.

Values taken from US20090098568A1.
